# Reference: PMC11665464, “The molecular chaperone ALYREF promotes R-loop resolution and maintains genome stability”
# Biological target: ALYREF-ΔRRM (human, UniProt Q86V81 1-257, del108-179)
# Test: EMSA; 35 mM Tris-HCl pH 7.5, 1 mM DTT, 100 ug/ml BSA, 1 mM MgCl2, 100 mM KCl, 10 min at 30 C; 5 nM nucleic acid; gel at 4 C
# Conditions: protein: recombinant; tags: His6; label: 32P; three-strand 5' RNA flap; RNA and DNA2 share the complement on DNA1
binder,measurement,value
"5' RNA-DNA flap (R-Flap, migratable R-loop mimic) (mixed) DNA 1: ACGCTGCCGAATTCTACCAGTGCCTTGCTAGGACATCTTTGCCCACCTGGTGGTGGGACC DNA 2: GGTCCCACCACCAGGTGGGCAAAGATGTCCCAGCAAGGCACTGGTAGAATTCGGCAGCGT RNA: GGUCCCACCACCAGGUGGGCAAAGAUGUCC",binding result,binds
